We go through three molecules from PMC11320570 (ACS Infectious Diseases, 2024).

For test [1], the target named is DENV-2 EDIII wild-type Fc-fusion antigen (Dengue virus type 2, strain 16681, UniProt P29990). The test is described as follows: ELISA. The conditions noted are these: both partners purified. On the technique in general: In an ELISA, binding on a coated surface is turned into a signal by an enzyme label.
Test [2] has as its target deglycosylated EDIII WT Fc-fusion antigen (Dengue virus type 2, strain 16681, UniProt P29990). The test is described as follows: ELISA. The following applies: both partners purified.

B1: 513 engineered and humanized antibody (antibody, V domains shown)
VH: QVQLVQSGAEVKKPGASVKVSCKAGFNIKDVYMSWVRQAPEQGLEWMGRIDPENGDTKYDPKLQGRVTMTADTSTNTAYMELRSLRSDDTAVYYCARGWEGFAYWGQGTLVTVSS
VL: DIVMTQSPASLAVSLGQRATISCRASENVDKYGNSFMHWYQQKPGQPPKLLIYRASELQWGVPDRFSGSGSGTDFTLTISSLQAEDVAVYYCQRSNEVPWTFGQGTKLEIK
On to B1, for which the binding result in test [1] is listed as “binds”.

B2: 3H5 mouse antibody (antibody, V domains shown)
VH: QVQLQQSGAEVARPGASVKLSCKASGYTFTSYWLQWVKQRPGQGLEWIGAIWPGDDDTRYAQKFQGKATMTADKSSSTAYIQLSNLASEDSAVYYCARKGGFAMDYWGQGTSVTVSS
VL: NIVMTQSPTSLAVSLGQRATISCRASESVDSFGKSFMHFYQQKPGQPPKLLIHLASNLESGVPARFTGRGSRTDFTLTIDPVEADDAATYYCQQNNEVPFTFGSGTKLEVK
With B2, the binding result in test [2] and in test [1] was “binds” each time.

B3: 2C8 mouse antibody (antibody, V domains shown)
VH: EVKLVESGGGLVQPGGSLSLSCAASGFTFTDYYMTWVRQPPGKALEWLALIRNKASGYTTEYSASVKGRFTISRDNSQSILYLQMNALRAEDSATYYCTRAKWDGHYFDYWGQGTTLTVSS
VL: DIQMTQSPASLSVSVGETVTITCRATKNIYNNLAWYQQKQGRSPQLLVYAATNLADGVPSRFSGSGSGTQFSLRINSLQSEDFGNYYCQHFWHTPWTFGGGTKLEIK
notes: Mouse IgG2a; source: hybridoma culture supernatant, purified (HiTrap protein-G HP)
On to B3, for which the binding result in test [1] is “binds”.
